Here are results for one substance from paper PMC7332344.

Broadly, the stoichiometry N is a count of units in the complex or per binding partner.

For this experiment, the target named is Rhodobacter sphaeroides TSPO A139T mutant (Rhodobacter sphaeroides) (UniProt Q9RFC8). The experiment is described as follows: native MS.

In turn, “Rhodobacter sphaeroides TSPO A139T mutant (from UniProt Q9RFC8 1-157) (natural protein)” registered a stoichiometry N of 2.
